According to patent US20140315215A1 (SECRETARY OF STATE FOR HEALTH, published 2014):

Target: T1, hen egg lysozyme (hen, UniProt P00698 19-147)
T1 construct: Antigen immobilised on the microtitre plate in all ELISAs; also called HEL
Assay: ELISA on immobilised HEL, tAK activity read-out; fusion extracted with glutathione and heat treated, compared with the BSA control
Method: FIG. 1 illustrates functional recovery of correctly folded single-domain antibody (VNAR) in the presence of the Sac tAK domain and glutathione. The fusion proteins were assessed for their ability to bind to hen egg lysozyme immobilized onto a microtitre plate in an ELISA format, using the tAK activity as the assay read-out. In each case background binding was measured using BSA as a non-relevant antigen control. In the case of Tma tAK fusions, no significant increase in binding was observed above the background binding to BSA with either glutathione extraction, heat treatment or a combination of the two.

T1 sequence (P00698 19-147): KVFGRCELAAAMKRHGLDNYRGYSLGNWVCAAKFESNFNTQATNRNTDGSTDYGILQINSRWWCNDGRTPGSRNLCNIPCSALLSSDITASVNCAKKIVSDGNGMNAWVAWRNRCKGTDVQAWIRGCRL

B1: SacAK-F3-VNAR fusion protein (Sulfolobus acidocaldarius adenylate kinase, [GGGGS]3 flexible linker F3, hen egg lysozyme specific shark VNAR) (VNAR)
chain: MLATALKLGYAKDRDEMRKLSVEKQKKLQIDAAKGIAEEARAGGEGYLFIDTHAVIRTPSGYLPGLPSYVITEINPSVIFLLEADPKIILSRQKRDTTRNRNDYSDESVILETINFARYAATASAVLAGSTVKVIVNVEGDPSIAANEIIRSMKQSTGGGGSGGGGSGGGGSGSARVDQTPRSVTKETGESLTINCVLRDASYALGSTCWYRKKSGSTNEESISKGGRYVETVNSGSKSFSLRINDLTVEDGGTYRCGLGVAGGYCDYALCSSRYAECGDGTAVTVN
notes: also called Sac tAK fusions; the fusion
fold increase in binding: ~10 fold
